Laboratory results taken from the RNAGym collection of RNA variant scans (doi:10.1073/pnas.2313332121).

B1: TPR t1 (parent)
chain: GACCAAUCUGCCCUCAGAGCUCGAGAACAUCUUCGGAUGCAGAGGAGGCAGGCUUCGGUGGCGCGAUAGCGCCAACGUCCUCAACCUCCAAUGCAUCCCACCACAUGAUGAUGCCUGAAGAGCCUUGGUUUUUUG

Variants of: B1
Assay: polymerase ribozyme fitness, log enrichment relative to wild type (log ratio); higher = more active; in vitro selection for triplet polymerase activity
Outline: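 Genotype fitness is the logarithm of its enrichment divided by wild-type enrichment, using inverse-variance-weighted averages of replicates. That logarithm is base 2. Enrichment was measured by Illumina sequencing of input and output libraries from one triplicate in vitro selection round, with frozen incubation at −7 °C, on PCR-built, transcribed mutant libraries of each subunit of a heterodimeric triplet polymerase ribozyme, retaining genotypes with ≥10 input reads and ≥1 read per output.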

Variant	polymerase ribozyme fitness (log ratio)
GACCAAUCUGCCCUCACAGCUCGAGAACAUCUUCGGAUGCAGAGGAGGCAGGCUUCGGUGGCGCGAUAGCGCCAACGUCCUCAACCUCCACUGCAUCCCACCACAUGAUGAUGCCUGAAGAGCCUUGGUUUUUUG [G17C A91C]	-4.65
GACCAAUCUGCCCUCACAGCUCGAGAACAUCUUCGGAUGCAGAGGAGGCAGGCUUCGGUGGCGCGAUAGCGCCAACGUCCUCAACCUCCAAUGCAUCCCACCACAUGAUGAUGCCUGAAGGGCCUUGGUUUUAUG [G17C A121G U133A]	-1.73
GACCAAUCUGCCCUCACAGCUCGAGAAUAUCUUCGGAUGCAGAGGAGGCAGGCUUCGGUGUCGCGAUAGCGCCAACGUCCUCAAACUCCAAUGCAUCCCACCACAUGAUAAUGCCUGAACAGCCUUGGUUUUUUG [G17C C28U G61U C85A G110A G120C]	-1.25
GACCAAUCUGCCCUCACAGCUCGAGAACAUCUUGGGAUGCAGAGGAGGCAGGCUUCGGUGGCGCGAUAGCGCCAACGUCCUCAACCUCCAAUGCAUCCUACCACAUGAUUAUGCCUGAAGAGCCUUUGUUUUUUG [G17C C34G C99U G110U G127U]	-5.7
GACCAAUCUGCCCUCACAGCUCGAGAACAUCUUCGGAUGUAGUGGAGGCAGGCUUCGGUGGCGCGAUAGCGCCAACGUCCUCAACCUCCAAUGCAUCCCACCACAUGAUGAUGCCUGAAGAGCCUUGGUGUUUUG [G17C C40U A43U U130G]	-3.78
GACCAAUCUGCCCUCACAGCUCGAGAACAUCUUCGGAUGCAGAGGAGGAAGGCUUCGGUGGCGCGAUAGCGUCAACGUCCUUAACCUCCAAUGCAUCCCACCACAUGAUGAUGUCUGAAGAGCCUUGGUUUUUUG [G17C C49A C72U C82U C114U]	-4.65
GACCAAUCUGCCCUCACAGCUCGAGAACAUCUUCGGAUGCAGAGGAGGAAGGCUUCGGUGGCGCGAUAGCGCCAACGUCCUUAACCUCCAAUGCAUCCCACCACAUGAUGAUGUCUGAAGAGCCUUGGUUUUUUG [G17C C49A C82U C114U]	-5.49
GACCAAUCUGCCCUCACAGCUCGAGAACAUCUUCGGAUGCAGAGGAGGCAGGCUUCGGUGGGGUGAUUGCGCCAACGUCCGCAACCUCCAAUGCAUCCCACCACAUGAUGAUGGCUGAAGAGCCUUGGUUUUUUG [G17C C62G C64U A68U U81G C114G]	-6.46
GACCAAUCUGCCCUCACAGCUCGAGAACAUCUUCGGAUGCAGAGGAGGCAGGCUUCGGUGGCGUGAUAGCGCCAACGUCCUCAACCUCCAAUGCAUCCCACCACAUGAUGAUGCCUGAAGAGCCUUGGUUUUUUG [G17C C64U]	-4.22
GACCAAUCUGCCCUCACAGCUCGAGAACAUCUUCGGAUGCAGAGGAGGCAGGCUUCGGUGGCGCGAUAGCGUCAACGUCCUCAACCUCCAAUGCAUCCCACCACAUGAUGAUGCCUGAAGAGCCUUGGUUUUUUG [G17C C72U]	-4.11
GACCAAUCUGCCCUCACAGCUCGAGAACAUCUUCGGAUGCAGAGGAGGCAGGCUUCGGUGGCGCGAUAGCGCCAACGUUCUCAACCUCCAAUGCAUCCCACCACAUGAUGAUGCCUGAAGAGCCUUGGUUUUUUG [G17C C79U]	-4.69
GACCAAUCUGCCCUCACAGCUCGAGAACAUCUUCGGAUGCAGAGGAGGCAGGCUUCGGUGGCGCGAUAGCGCCAACGUCGUCAACCUCCAAUGCAUCCCACCACAUGAUGAUGCCUGAAGAGCAUUGGUUUUUUG [G17C C80G C124A]	-8.59
GACCAAUCUGCCCUCACAGCUCGAGAACAUCUUCGGAUGCAGAGGAGGCAGGCUUCGGUGGCGCGAUAGCGCCAACGUCCUCAAGCUCCAAUGCAUCCCACCACAUGAUGAUGCCUGAAGAGCCUUGGUUUUUUG [G17C C85G]	-6.06
GACCAAUCUGCCCUCACAGCUCGAGAACAUCUUCGGAUGCAGAGGAGGCAGGCUUCGGUGGCGCGAUAGCGCCAACGUCCUCAAGUUCCAUUGCAUCCCACCACAUGAUGAGGCCUGAAGAGCCUUGGUUUUUUG [G17C C85G C86U A91U U112G]	-6.74
GACCAAUCUGCCCUCACAGCUCGAGAACAUCUUCGGAUGCAGAGGAGGCAGGCUUCGGUGGCGCGAUAGCGCCAACGUCCUCAACCUUCAAUGCAUCCCACCACAUGAUGAUGCCUGAAGAGCCUUGGUUUUUUG [G17C C88U]	-4.49
GACCAAUCUGCCCUCACAUCUCGAGAACAUCUUCGGAUGCAGAGGAGGCAGGCUUCGGUGGCUCGAUAGCGCCAACGUCCUCAACCUCCACUGCAUCCCACCACAUGAUGAUGCCUGAAGAGCAUUGGUUUUUUG [G17C G19U G63U A91C C124A]	-5.7
GACCAAUCUGCCCUCACAGCUCGAGAACAUCUUCAGAUGCAGAGGAGGCAGGCUUCGGUGGCGCGAUAGCGCCAACGUCCUCAACCUCCAAUGCAUCUCACCACAUGAUGAUGCCUGAAAAGCCUUGGUUUUUUG [G17C G35A C98U G120A]	-5.26
GACCAAUCUGCCCUCACAGCUCGAGAACAUCUUCGAAUGCAGAGGAGGCAGGCUUCGGUGGCGCGAUAGCGCCAACGUCCUCAACCUCCAAUGCAUCCCACCACAUGAUGAUGGCUGAAGAGCCUUAGUUUUUUG [G17C G36A C114G G127A]	-5.69
GACCAAUCUGCCCUCACAGCUCGAGAACAUCUUCGGAUGCAAAGGAGGCAGGCUUCGGUGGCGCGAUAGCGCCGACGUCCUCACCCUCCAUUGCAUCCCACCACAUGAUGAUGCCUGAAGAGCCUUGGUUUUUUG [G17C G42A A74G A84C A91U]	-4.35
GACCAAUCUGCCCUCACAGCUCGAGAACAUCUUCGGAUGCAGAGGAGGCAGGCUUCGGUGACGCGAUAGCGCCAACGUCCUAAACCUCCAAUGCAUCCCACCACAUGAUGAUGCCUGAAGAGCCUUGGUUUUUUG [G17C G61A C82A]	-4.03
GACCAAUCUGCCCUCACAGCUCGAGAACAUCUUCGGAUGCAGAGGAGGCAGGCUUCGGUGACGCGAUAGCGCCAACGUCCUCAACCUCCAAUGCAUCCCACCACAUGAUGAUGCCUGAACAGCCUUGGUUUUUUG [G17C G61A G120C]	-1.39
